Experimental data taken from US11840574B2, “Anti-DR5 antibody and use thereof” (DONG-A ST CO., LTD., priority 2017, dated 2023).
Residue numbers refer to the chain shown, from its start.

Legend:
[1] = target: T1, Human DR5 (Homo sapiens, UniProt O14763); assay: Binding affinity of antibody to human DR5 (BIAcore, CM5 chip); conditions: for Ka(1/Ms) / Ka: association rate, Human DR5, 1:1 Langmuir binding model; for Kd: equilibrium dissociation constant, Human DR5
Experimental: In order to measure affinity, human DR5 was coupled to carboxylated dextran biosensor chips (CM5, GE) according to the manufacturer's instruction. Association and dissociation rates were assessed by injecting IgG proteins that were 2-fold serially diluted to 5 nM, 2.5 nM, 1.25 nM, 0.625 nM, 0.313 nM, and 0.156 nM.
Association and dissociation rates were depicted in association and dissociation sensorgrams and calculated using a simple 1:1 Langmuir binding model (BIAcore X100 Evaluation Software, ver. 2.0). The equilibrium dissociation constants (KD), which is the ratio of dissociation constant (Kd) to association constant (Ka), were confirmed to be in the sub-nanomolar range. Measurements of the binding of antibody D0 and DA1 to DA35 of the present disclosure to DR5 are given in Table 11 below (antibody names are given as the names of the clones from which the antibodies were derived). A representative sensorgram for D0 is depicted in FIG. 1.

[2] = target: T1, Human DR5; assay: TRAIL competitive enzyme-linked immunosorbent assay; assay type: binding; conditions: 0.01-400 nM of TRAIL protein, absorbance at 405 nm
Experimental: In order to examine antigen-binding characteristics of the antibodies selected in Example 3, a TRAIL competitive enzyme-linked immunosorbent assay was conducted. ELISA plates were coated with 0.1 μg/ml human DR5 (R&D systems, U.S.A.) at 4° C. Thereafter, the plates were incubated with 0.01 nM-1440 nM of antibodies (D0, DA20, DA21, DA21, DA22, and DA23) together with 0.01-400 nM of TRAIL protein for 2 hours. After the plates were washed three times with PBST (0.1% bovine serum albumin and Tween-20 in PBS), HRP (horse radish peroxidase)-conjugated anti-human immunoglobulin Fc was added to each well and incubated for 1 hour. After three washes with PBST, color development was performed for 20 min with ABTS (Thermo, U.S.A.). When the color development reached to a certain level, the reaction was terminated with 1 N sulfuric acid. Absorbance at 405 nm was measured using a spectrophotometer (Molecular Device, U.S.A.) and is depicted in FIGS. 8a and 8b. The antibody AP disclosed in Example (7-1) was used as a control.

[3] = Pharmacokinetics of antibody in nude mice (plasma ELISA); assay type: in vivo; conditions: intravenous, 10 mg/kg
Experimental: In order to examine in vivo kinetics of the antibodies constructed above, blood half-life was evaluated in mice. Antibodies were intravenously injected at doses of 1-10 mg/kg into nude mice. Blood was sampled from the orbital vein from 5 min to 14 days after injection. The blood collection was conducted using heparinized capillary tubes. Plasma obtained by centrifugation of the blood samples was diluted at certain ratios and used as samples for ELISA evaluation. Human DR5 diluted to a concentration of 10 ng/ml was plated at 100 μl per well onto 96-well immune plates (Nunc, U.S.A.) and adsorbed to the wells for 12-14 hours. The plates were washed three times with buffer solution containing 0.1% Tween 20 and blocked with buffer solution containing bovine serum albumin (Sigma, U.S.A.) at room temperature for 1 hour. After three rounds of washing with buffer solution, the plates were incubated with each of the mouse plasma dilutions and a serial dilution of standard substance at room temperature for 2 to 3 hours. After three washes with buffer solution, a 1:20000 dilution of an HRP-conjugated anti-human immunoglobulin Fc (Fc-HRP) antibody (Bethyl, U.S.A.) was added at a volume of 100 μl per well and incubated at room temperature for 1 hour. After washing three times, 100 μl of a TMB solution (Sigma, U.S.A.) was added to each well and allowed to react. When the color development reached a certain level, the reaction was terminated with 0.2 N sulfuric acid solution. Absorbance at 450 nm was measured using a spectrophotometer (Molecular Device, U.S.A.). The antibody concentration in each plasma sample was calculated from the optical density (OD) measurements, and pharmacokinetic parameters were estimated using WinNonLin ver. 6.2.0.495.

[4] = tested on: human colorectal cancer cell line Colo205; assay: Cell death activity upon co-treatment with TRAIL, Colo205; assay type: cell-based; conditions: Colo205, antibody as low as 10 ng/ml, TRAIL 0.5, 1, 10 ng/ml
Experimental: (§1) Antibody properties according to epitopes were analyzed in terms of cell death activity upon co-treatment with the constructed antibodies and TRAIL. In this test, the human colorectal cancer cell line Colo205 (ATCC, U.S.A.) and the human pancreatic cell line Miapaca-2 (ATCC, U.S.A.) were employed. The tumor cells were suspended at a concentration of 1×10^5 cells/ml and the suspensions were plated at 50 μl per well into 96-well culture plates, followed by incubation for 16-24 hours in a constant temperature and humidity chamber. Serial dilutions of the antibodies (0.1-10000 ng/ml) and TRAIL protein at determined concentrations (0.5, 1, 10 ng/ml) were applied in combination to the 96-well plates. After incubation for 48 to 72 hours at a constant temperature in a humidified condition, a resazurin solution (Invitrogen, U.S.A.) was added at an amount of 10 μl to per well. When the reaction reached a certain level after 1 to 2 hours, fluorescence was read at 590 nm using a spectrophotometer (Molecular Device). Cell viability was calculated as the percentage of relative fluorescence units (RFU) of a test substance-treated group (treated RFU) to the relative fluorescence units of a culture medium-treated group (untreated RFU) (Cell viability (%)=treated RFU/Untreated RFU×100).
(§2) Representative results are depicted in FIGS. 9a (Colo205) and 9b (Miapaca-2). […]

[5] = tested on: human pancreatic cell line Miapaca-2; assay: Cell death activity upon co-treatment with TRAIL, Miapaca-2; assay type: cell-based; conditions: Miapaca-2, antibody as low as 10 ng/ml, TRAIL 0.5, 1, 10 ng/ml
Experimental: as §1, §2

B1: DA35: humanized or deimmunized variant of parental clone D0; CDRs SEQ ID NO 1, 2, 7 / 4, 10, 13 (antibody, V domains shown)
VH: AVTLDESGGGLQTPGGGLSLVCKGSGFTFSSFNMLWVRQAPGKGLEWVAGIGKSDRYTGYGSAVKGRATISRDDGQSTARLQMNSLRAEDTAVYYCVKDAGSGCGSGGWTGACIDTWGHGTEVIVSS
VL: LTQPSSVSANLGGTVEITCSGGDSYAGSYYYGWYQQKAPGSAPVTVIYNNNNRPSNIPSRFSGSTSGSTATLTITGVQAEDEATYFCGSRDSSYVGIFGAGTTLTVL
- Ka(1/Ms) [1]: 1.13 × 10^06 1/Ms
- Kd [1]: 0.0801 nM

B2: DA20: humanized or deimmunized variant of parental clone D0; CDRs SEQ ID NO 1, 2, 7 / 4, 10, 14 (antibody, V domains shown)
VH: EVQLVESGGGLVQPGGSLRLSCAASGFTFSSFNMLWVRQAPGKGLEWVAGIGKSDRYTGYGSAVKGRFTISRDDSKSTVYLQMNSLRAEDTAVYYCVRDAGSGCGSGGWTGACIDTWGQGTLVTVSS
VL: DIQMTQSPSSLSASVGDRVTITCSGGDSYAGSYYYGWYQQKPGKAPKTLIYNNNNRPSGVPSRFSGSRSGTDFTLTISSLQPEDFATYYCGSRDSAGMGAFGQGTKVEIK
- Ka(1/Ms) [1]: 1.00 × 10^06 1/Ms
- Kd [1]: 0.012 nM
- antigen binding in the presence of TRAIL [2]: maintained a certain level of antigen binding irrespective of TRAIL concentrations

B3: DA2: humanized or deimmunized variant of parental clone D0; CDRs SEQ ID NO 1, 2, 7 / 4, 10, 13 (antibody, V domains shown)
VH: B2 VH
VL: B2 VL with A96S, G97Y, M98V, A100I
- Ka [1]: 1.9e+06 M⁻¹ s⁻¹

B4: DA21: humanized or deimmunized variant of parental clone D0; CDRs SEQ ID NO 1, 2, 7 / 4, 10, 16 (antibody, V domains shown)
VH: B2 VH
VL: B2 VL with A96S, M98A, A100G
- Ka(1/Ms) [1]: 1.11 × 10^06 1/Ms
- Kd [1]: 0.00643 nM
- antigen binding in the presence of TRAIL [2]: maintained a certain level of antigen binding irrespective of TRAIL concentrations

B5: DA23: humanized or deimmunized variant of parental clone D0; CDRs SEQ ID NO 1, 2, 9 / 4, 10, 13 (antibody, V domains shown)
VH: B2 VH with G103P, S106K
VL: B2 VL with R68T, A96S, G97Y, M98V, A100I
- Ka(1/Ms) [1]: 6.96 × 10^05 1/Ms
- Kd [1]: 0.0403 nM
- Cmax [3]: 195.8 µg/mL
- t½ Terminal (2 d~14 d) [3]: 7.97 days
- t½ initial (−1 d) [3]: 0.58 days
- antigen binding in the presence of TRAIL [2]: maintained a certain level of antigen binding irrespective of TRAIL concentrations
- cell death activity in combination with TRAIL, compared to antibody alone [4]: higher cell death activity
- cell death activity in combination with TRAIL, compared to antibody alone [5]: higher cell death activity

B6: DA1: humanized or deimmunized variant of parental clone D0; CDRs SEQ ID NO 1, 2, 7 / 4, 10, 13 (antibody, V domains shown)
VH: B2 VH
VL: B2 VL with R68T, A96S, G97Y, M98V, A100I
- Ka [1]: 4.9e+06 M⁻¹ s⁻¹

B7: DA4: humanized or deimmunized variant of parental clone D0; CDRs SEQ ID NO 1, 2, 7 / 4, 10, 13 (antibody, V domains shown)
VH: B2 VH with S77N
VL: B2 VL with R68T, A96S, G97Y, M98V, A100I
- Ka [1]: 1.2e+06 M⁻¹ s⁻¹

B8: DA3: humanized or deimmunized variant of parental clone D0; CDRs SEQ ID NO 1, 2, 7 / 4, 10, 13 (antibody, V domains shown)
VH: B2 VH with D74T
VL: B2 VL with R68T, A96S, G97Y, M98V, A100I
- Ka [1]: 4.9e+06 M⁻¹ s⁻¹

B9: DA22: humanized or deimmunized variant of parental clone D0; CDRs SEQ ID NO 1, 2, 8 / 4, 10, 13 (antibody, V domains shown)
VH: B2 VH with G103P
VL: B2 VL with R68T, A96S, G97Y, M98V, A100I
- Ka(1/Ms) [1]: 9.32 × 10^05 1/Ms
- Kd [1]: 0.0342 nM
- Cmax [3]: 227.9 µg/mL
- t½ Terminal (2 d~14 d) [3]: 8.37 days
- t½ initial (−1 d) [3]: 0.70 days
- antigen binding in the presence of TRAIL [2]: maintained a certain level of antigen binding irrespective of TRAIL concentrations
